Reference: patent publication EP4177273A1

Key:
[1] = target: human Claudin 18 splice variant 2 (CLDN18.2) (human); assay: cell-based or functional assay
[2] = target: human Claudin 18 splice variant 2 (CLDN18.2) (human); assay: FACS, 2E5 Panc05.04 cells/100 µl stained with 50 µg/ml IMAB362
[3] = target: human Claudin 18 splice variant 2 (CLDN18.2) (human); assay: FACS, 2E5 Patu8988S cells/100 µl stained with 50 µg/ml IMAB362
[4] = target: human Claudin 18 splice variant 2 (CLDN18.2) (human); assay: FACS with FITC-labeled IMAB362 on DANG-LVT cells 2 days after transduction with human CLDN18.2
[5] = target: human Claudin 18 splice variant 2 (CLDN18.2) (human); assay: FACS with FITC-labeled IMAB362 on HPAC-LVT cells 2 days after transduction with human CLDN18.2
[6] = target: human Claudin 18 splice variant 2 (CLDN18.2) (human); assay: FACS with FITC-labeled IMAB362 on YAPC-LVT cells 2 days after transduction with human CLDN18.2
[7] = target: human Claudin 18 splice variant 2 (CLDN18.2) (human); assay: FACS with FITC-labeled IMAB362 on BxPC3-LVT cells 2 days after transduction with human CLDN18.2
[8] = target: human Claudin 18 splice variant 2 (CLDN18.2) (human); assay: FACS with FITC-labeled IMAB362 on Suit2-LVT cells 2 days after transduction with human CLDN18.2
[9] = target: human Claudin 18 splice variant 2 (CLDN18.2) (human); assay: FACS with FITC-labeled IMAB362 on CAPAN1-LVT cells 2 days after transduction with human CLDN18.2
[10] = target: human Claudin 18 splice variant 2 (CLDN18.2) (human); assay: FACS with FITC-labeled IMAB362 on Patu8902-LVT cells 2 days after transduction with human CLDN18.2
[11] = target: human Claudin 18 splice variant 2 (CLDN18.2) (human); assay: FACS with FITC-labeled IMAB362 on MiaPaCa-2-LVT cells 2 days after transduction with human CLDN18.2

IMAB362 (antibody)
ADCC EC50 (ng/ml), BxPC3 LVT cells, human PBMC E:T 40:1 [1]: 47.7 ng/mL | ADCC EC50 (ng/ml), CAPAN1-LVT cells, human PBMC E:T 40:1 [1]: 65 ng/mL | ADCC EC50 (ng/ml), DANG cells (endogenous CLDN18.2), human PBMC E:T 40:1 [1]: 4980 ng/mL | ADCC EC50 (ng/ml), DANG-LVT cells, human PBMC E:T 40:1 [1]: 52.3 ng/mL | ADCC EC50 (ng/ml), HPAC-LVT cells, human PBMC E:T 40:1 [1]: 117 ng/mL | ADCC EC50 (ng/ml), MiaPaCa2-LVT cells, human PBMC E:T 40:1 [1]: 23.4 ng/mL | ADCC EC50 (ng/ml), Panc05.04 cells (endogenous CLDN18.2), human PBMC E:T 40:1 [1]: 5730 ng/mL | ADCC EC50 (ng/ml), Patu8902-LVT cells, human PBMC E:T 40:1 [1]: 49.2 ng/mL | ADCC EC50 (ng/ml), Patu8988S cells (endogenous CLDN18.2), human PBMC E:T 40:1 [1]: 175 ng/mL | ADCC EC50 (ng/ml), Suit2-LVT cells, human PBMC E:T 40:1 [1]: 73.2 ng/mL | ADCC EC50 (ng/ml), YAPC-LVT cells, human PBMC E:T 40:1 [1]: 29.5 ng/mL | ADCC EC50, DANG/Panc05.04 cells, PBMCs of different donors [1]: 0.1 to 38 µg/mL | ADCC EC50, Patu8988S cells, PBMCs of different donors [1]: 0.01 to 1.4 µg/mL | ADCC Max. lysis (%), BxPC3 LVT cells, human PBMC E:T 40:1 [1]: 90.6% | ADCC Max. lysis (%), CAPAN1-LVT cells, human PBMC E:T 40:1 [1]: 92.6% | ADCC Max. lysis (%), DANG cells (endogenous CLDN18.2), human PBMC E:T 40:1 [1]: 52.5% | ADCC Max. lysis (%), DANG-LVT cells, human PBMC E:T 40:1 [1]: 85.9% | ADCC Max. lysis (%), HPAC-LVT cells, human PBMC E:T 40:1 [1]: 76.2% | ADCC Max. lysis (%), MiaPaCa2-LVT cells, human PBMC E:T 40:1 [1]: 78.1% | ADCC Max. lysis (%), Panc05.04 cells (endogenous CLDN18.2), human PBMC E:T 40:1 [1]: 67.1% | ADCC Max. lysis (%), Patu8902-LVT cells, human PBMC E:T 40:1 [1]: 74.1% | ADCC Max. lysis (%), Patu8988S cells (endogenous CLDN18.2), human PBMC E:T 40:1 [1]: 70.1% | ADCC Max. lysis (%), Suit2-LVT cells, human PBMC E:T 40:1 [1]: 81.2% | ADCC Max. lysis (%), YAPC-LVT cells, human PBMC E:T 40:1 [1]: 91.5% | CDC EC50 (ng/ml), CAPAN1-LVT cells, human serum pool [1]: 970 ng/mL | CDC EC50 (ng/ml), MiaPaCa2-LVT cells, human serum pool [1]: 340 ng/mL | CDC EC50 (ng/ml), Patu8902-LVT cells, human serum pool [1]: 291 ng/mL | CDC EC50, MiaPaCa-2-LVT cells pretreated with gemcitabine [1]: 4.68 µg/mL | CDC EC50, MiaPaCa-2-LVT, Suit2-LVT and CAPAN1-LVT cells, human serum [1]: 0.3 to 2.6 µg/mL | CDC EC50, medium cultivated MiaPaCa-2-LVT cells [1]: 7.67 µg/mL | CDC Max. lysis (%), CAPAN1-LVT cells, human serum pool [1]: 79.1% | CDC Max. lysis (%), MiaPaCa2-LVT cells, human serum pool [1]: 78.4% | CDC Max. lysis (%), Patu8902-LVT cells, human serum pool [1]: 76.7% | CLDN18 surface expression (FACS), % positive cells [2]: 15% | CLDN18 surface expression (FACS), % positive cells [3]: 81.7% | Transduction efficiency (% cells positive) [4]: 87.5% | Transduction efficiency (% cells positive) [5]: 97.3% | Transduction efficiency (% cells positive) [6]: 82.2% | Transduction efficiency (% cells positive) [7]: 92.8% | Transduction efficiency (% cells positive) [8]: 92.2% | Transduction efficiency (% cells positive) [9]: 89.6% | Transduction efficiency (% cells positive) [10]: 93% | Transduction efficiency (% cells positive) [11]: 96.3%
